# B1: SMGL-1 (purified, GST tag cleaved) (natural protein, C. elegans, UniProt P90841 1-1615, looked up)
# chain: MAHMRGTNHEKEKHDDENSKILLKERYNLLKWLTNVEMRSPNVLIPVQIANYVESLPFCKLAVSPKCDRVAVMSYARQLDIYQISGEILTHESSVQVLEETSPEYCILQFSSSSTLILSSRSTPHIDVFDSMGAYLYDIPLELHEGIFDVNSAICGMQTFENYSSSSNDKFIEILYVLQYSGVFSAFKIGRLSKYVKMWTVQLDIGQTGSFTVLPQYNLLLVASHHKESTSLVPPAGLCSFRMMDMDPFVEPIRISTPDGGFFSRLPFSTSFMSYLPRMSLSFDSQLLVSVSTSGSLYLFEIPSLHVKFSFNFISGPRPVDACFVDSDEIAVIYDNGYLLRCSLEDLEEKMYSVKMRSKKEIDEEPELKDFYSEQTVMVSPAQREIFLLTADGDNSFLRKAAHKRVQLAGQLWFYTVWNSLKKLVGMAMGEPAEQLHFETHIAKFEFSLIHSPTRTLQELFDRTLKEHDYTRARELAETYDTIDIYVVLKSEWIDKCSKNKVTVEDVEDILKRIGDSEWAAEQCASADSDDFEVHKALIDLGLSLGESSVTWQIRLLHHWRMLEVCRIKGDVDIYMMARNGSCLDAALTFAHNGDIDSLTRIIESNMAVMKHHQKRILSAIPTCTSPTKYEILMPKREDGETEEQWELEEQNDGIYERLDKILMEHPDAESLIRSINVGNIPNEETFDFTSWVRETLPKIDFECGMTDICVNLLQIAYERGYEDLIHDLATWQPYAQYIRICSSVSESITSFQDSTMKSFTDRFSRLLDSELIKNAKDIVSLIEWKIKMTSSDSEESIEDRLRDAVTTLMKATNERTTKVLVAFRNELPSVVDDHVILEVLLNMTSTGADLMKSLGDLPVDKYVNVTSSLGSLMSRGVKMTFKSIFESMKEPDGARRVLIKLSRSGNCSNFDDWMSLRDDIYDMANGIYEDLVTTEEALEIFAGEILEEERIGSHPELMELVLTLNPKEDNSNPRKLSIAKSADVLLSKSDELMNEATQRGDPLLGRSRFFAVAARPISPKKSKEKLDWLDAIDAALELGCTMMPIAIKFCEHDSLLRDVVGLGSNYKQGKKILSFAKQLNIDTPIATALSYCALAALNANDAVYLSKYIGEVMKAKGVPVVHKLCMQIMNSSHVPTDMEDVYSCAVLNSSEENLLDTVDAIASSEKRLSESRRCREIRLDDIPVSEAVVGDPMYTPMRLYNARKEISGDVKQKITFYGKRNLWETNYGKREGFDVMKRLYAHESSTVALCFSLFEPAENVETGELSWTKNDKLRRYERGLRFFQDRVPLSDLVTAPASAIINEANKGDASITAIDRIEDYGCDRRRFIGDAEYRTETIIGLAGTENEQIFADALELAEKYEIDEWKLHMASLEYLLDPSYNVPIIDVKQIMKSRKHLSKLRTKLDEFHSRLRSMVLPSLETNEQFLSYISLFADAEPEKKLGDTIKKIISKMKNVEAIRLWTDAKYLSSTLNKIPDGNLRAIISSVLQFPKIGVKACEMSAEFLLEGDDTRPPSNPFTLFLLMRSNIEDFLELVANKKSRDDEIAYLDQAVILLENTPKVPPLLLDAIKMRSEKMHRATVTPEPATPSNGSSTGLSSYFSNTEDNSGMMKRRKN
# Biological target: the molecule itself
# Test: SEC + SEC-MALS
protein,measurement,value
B1,stoichiometry N,4
